# T1: CodY (wild type, C-terminal His5) (Bacillus subtilis, UniProt P39779 2-259)
# T1 sequence: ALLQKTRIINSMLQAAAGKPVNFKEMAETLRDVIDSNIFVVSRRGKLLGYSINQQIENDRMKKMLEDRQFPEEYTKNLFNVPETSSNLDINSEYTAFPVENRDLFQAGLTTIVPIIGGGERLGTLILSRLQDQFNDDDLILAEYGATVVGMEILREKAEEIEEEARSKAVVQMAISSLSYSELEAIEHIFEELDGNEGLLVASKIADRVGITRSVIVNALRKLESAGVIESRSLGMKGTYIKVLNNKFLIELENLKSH
# How the values were obtained:
# [1] = target: CodY(L3S), leucine 3 to serine mutant of CodY from Bacillus subtilis (Bacillus subtilis) (UniProt P39779); experiment: crystal structure; CodY(L3S) at 18 mg/ml with 20 mM isoleucine; 15% PEG 5000, 5% tacsimate, 0.1 M HEPES pH 7.5; four molecules per asymmetric unit
# [2] = target: T1, CodY (wild type, C-terminal His5); experiment: EMSA; 10 mM Ile/Leu/Val; apparent Kd, CodY monomer; C2 predominant; EMSA: 20 mM Tris-Cl pH 8.0, 50 mM KCl, 2 mM MgCl2, 5% glycerol, 0.5 mM EDTA, 1 mM DTT, 0.05% Nonidet P, salmon sperm DNA (printed 40-25 ug/ml), room temperature 16 min, +/-10 mM ILV; settings: protein: recombinant, tags: C-terminal His5, chain copies: 2, blunt
# [3] = target: the molecule itself; experiment: SEC-MALLS; 100 ul of 1 mg/ml (~35 uM) protein on Superdex S200 10/300 in 50 mM Tris-HCl pH 7.5, 150 mM NaCl, with or without 10 mM isoleucine (no effect on the trace); no tetramers seen
# [4] = target: the molecule itself; experiment: crystal structure; unliganded CodY, three crystal forms (A, B, C) grown from 10-20 mg/ml protein; form B with 10 mM GTP and form C with 5 mM GTPgammaS present but not seen bound; tetramer in all forms
# [5] = target: T1, CodY (wild type, C-terminal His5); experiment: EMSA; 10 mM Ile/Leu/Val; only C1 complex; EMSA: 20 mM Tris-Cl pH 8.0, 50 mM KCl, 2 mM MgCl2, 5% glycerol, 0.5 mM EDTA, 1 mM DTT, 0.05% Nonidet P, salmon sperm DNA (printed 40-25 ug/ml), room temperature 16 min, +/-10 mM ILV; settings: protein: recombinant; tags: C-terminal His5; chain copies: 2; label: 32P 5' on one strand; blunt
molecule,measurement,setting,value
"CodY(L3S), leucine 3 to serine mutant of CodY from Bacillus subtilis (from UniProt P39779 1-259) (natural protein)",stoichiometry N,[1],4
BcaPp8(36) (dsDNA) DNA 1: CAAAATAAAAAATTTGTCGAATTTTCTGAAAATTTT DNA 2: AAAATTTTCAGAAAATTCGACAAATTTTTTATTTTG,Kd,[2]; label: 32P 5' on one strand in EMSA,1.6 nM
"CodY from Bacillus subtilis, full-length, wild type (natural protein, what is left of the tag after cleavage with human rhinovirus 3C protease, printed as Gly-Pro-Ala; CodY, Bacillus subtilis, 259 amino acid residues, calculated mass 29 kDa; construct pET-YSBLIC-BsCodY; also called unliganded CodY; wild-type CodY; source: E. coli BL21(DE3), purified (nickel chelation, 3C protease cleavage, second nickel column, heparin, Superdex 200); not shown: polyhistidine, …) GPAMALLQKTRIINSMLQAAAGKPVNFKEMAETLRDVIDSNIFVVSRRGKLLGYSINQQIENDRMKKMLEDRQFPEEYTKNLFNVPETSSNLDINSEYTAFPVENRDLFQAGLTTIVPIIGGGERLGTLILSRLQDQFNDDDLILAEYGATVVGMEILREKAEEIEEEARSKAVVQMAISSLSYSELEAIEHIFEELDGNEGLLVASKIADRVGITRSVIVNALRKLESAGVIESRSLGMKGTYIKVLNNKFLIELENLKSH",stoichiometry N,[3],2
same,stoichiometry N,[4],4
BcaPp8(31) (dsDNA) DNA 1: TAAAAAATTTGTCGAATTTTCTGAAAATTTT DNA 2: AAAATTTTCAGAAAATTCGACAAATTTTTTA,Kd,[2]; label: 32P 5' on one strand,1.6 nM
BcaPp8(19) (dsDNA) DNA 1: CGAATTTTCTGAAAATTTT DNA 2: AAAATTTTCAGAAAATTCG,binding result,[5],binds
